Assay results from patent US20070134236A1 (Biogen, published 2007).
Substitutions are numbered along the chain they refer to.

T1: human fractalkine (human, UniProt P78423 25-100, limits assumed)
T1 sequence (looked up): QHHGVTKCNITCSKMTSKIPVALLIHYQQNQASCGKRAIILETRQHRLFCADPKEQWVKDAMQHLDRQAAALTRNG

T2: human DC-CK (human, UniProt P55774 21-89)
T2 sequence (looked up): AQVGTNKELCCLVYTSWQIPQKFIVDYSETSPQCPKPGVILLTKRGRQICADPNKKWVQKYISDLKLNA

T3: human MCP-2 (human, UniProt P80075 24-99)
T3 construct: also called hMCP-2; huMCP-2
T3 sequence (looked up): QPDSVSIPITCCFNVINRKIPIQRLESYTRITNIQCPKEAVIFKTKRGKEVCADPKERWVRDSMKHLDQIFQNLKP

B1: monoclonal antibody 4N4 (antibody, mouse IgG1, V domains shown)
VH: EVQLQQSGAELVKAGASVKLSCPASGLNIKDTYMHWVKQRPEQGLEWIGRIDPANGNTKFDPKFQGKATITADTSSNTAYLQLSSLTSEDTAVYYCARGVFGFFDYWGQGTTLTVSS
VL: DIQMTQSSSSFSVSLGDRVTITCKATEDIYNRLAWYQQKPGSAPRLLISGATSLETGVPSRFSGSGSGKDYTLSITSLQTEDVATYYCQQFWSAPYTFGGGTKLEIK
notes: mouse IgG1; also called 4N4.1
B2: monoclonal antibody 5A13 (antibody, mouse IgG1, V domains shown)
VH: B1 VH
VL: B1 VL
notes: mouse IgG1; also called 5A13.1
B3: monoclonal antibody 6D21 (antibody, mouse IgG1, V domains shown)
VH: B1 VH
VL: B1 VL
notes: mouse IgG1; also called 6D21.1
B4: monoclonal antibody 6I5 (antibody, mouse IgG1, V domains shown)
VH: B1 VH
VL: B1 VL
notes: mouse IgG1; also called 6I5.1; 615
B5: monoclonal antibody 7H1 (antibody, mouse IgG1, V domains shown)
VH: B1 VH
VL: B1 VL
notes: mouse IgG1; also called 7H1.1
B6: humanized 11K2 H1-L2 (antibody, human IgG1, V domains shown)
VH: QVQLVQSGAEVKKPGSSVKVSCKASGLNIKDTYMHWVRQAPGQGLEWIGRIDPANGNTKFDPKFQGRATITADTSTSTAYMELSSLRSEDTAVYYCARGVFGFFDYWGQGTTVTVSS
VL: DIQMTQSPSSLSASVGDRVTITCKATEDIYNRLAWYQQKPGKAPKLLISGATSLETGVPSRFSGSGSGTDYTLTISSLQPEDFATYYCQQFWSAPYTFGGGTKVEIKR
notes: human IgG1 kappa
B7: humanized 11K2 H2-L2 (antibody, human IgG1, V domains shown)
VH: B6 VH with N28T, K30S, I48M, A68V
VL: B6 VL
notes: human IgG1 kappa
B8: Fab fragment of chimeric 11K2 (Fab, V domains shown)
VH: B1 VH
VL: DIQMTQSSSSFSVSLGDRVTITCKATEDIYNRLAWYQQKPGSAPRLLISGATSLETGVPSRFSGSGSGKDYTLSITSLQTEDVATYYCQQFWSAPYTFGGGTKLEIKR
notes: also called Ch11K2
B9: Fab fragment of humanized 11K2 H1L1 (Fab, V domains shown)
VH: B6 VH
VL: B6 VL with T69K
B10: Fab fragment of humanized 11K2 H1L2 (Fab, V domains shown)
VH: B6 VH
VL: B6 VL
B11: Fab fragment of humanized 11K2 H2L1 (Fab, V domains shown)
VH: B6 VH with N28T, K30S, I48M, A68V
VL: B6 VL with T69K
B12: Fab fragment of humanized 11K2 H2L2 (Fab, V domains shown)
VH: B6 VH with N28T, K30S, I48M, A68V
VL: B6 VL

target: human Gcp-2 (human, UniProt P80162 38-114, limits assumed); assay: ELISA, supernatant
Description: (§1) MaxiSorp 384 well plates were coated with 15-20 μl antigen in PBS. Recombinant purified human antigens included: MCP-1, MCP-2, MCP-3, MCP-4, IL-8, eotaxin, fractalkine, Gcp-2, DC-CK (Gcp-2 and DC-CK are also chemokines). Plates were incubated with antigen for 2 hours at 37° C. or overnight at 4° C. Non-specific sites were blocked with 80 μl/well of 1% BSA/PBS for 1 hour at room temperature. Plates were washed and 15 μl of hybridoma supernatant was added to each well and incubated for 1 hour at room temperature. Plates were washed and wells were incubated with 20 μl/well of a 1:25 000 dilution of goat anti-mouse IgG peroxidase conjugate (Jackson Catalog Number 515-036-003). Plates were incubated for 1 hour at room temperature, washed, and 20 μl/well of substrate (TMB, tetramethylbenzidine, Jackson, Catalog Number 515-036-062) was added. Reaction was allowed to proceed and stopped by addition of 20 μl/well of 2M H₂SO₄. Reactive clones were picked for further analysis. Isotyping of hybridoma supernatants was performed by antigen-dependent ELISA. Briefly, wells were coated with 50 μl of human MCP-1 (5 μg/ml) for 1 hour at 37° C. Wells were washed 4 times and blocked with PBS/1% BSA. Isotyping of hybridoma supernatants was then performed using a mouse immunoglobulin screening/isotyping kit (Zymed Laboratories, San Francisco, —CA) as recommended by the manufacturer.

Binder | binding result
B1 | no binding
B2 | no binding
B3 | no binding
B4 | no binding
B5 | no binding

target: T1, human fractalkine; assay: ELISA, supernatant
Description: as §1

Binder | binding result
B1 | no binding
B2 | no binding
B3 | no binding
B4 | no binding
B5 | no binding

target: T2, human DC-CK; assay: ELISA, supernatant
Description: as §1

Binder | binding result
B1 | no binding
B2 | no binding
B3 | no binding
B4 | no binding
B5 | no binding

target: T3, human MCP-2; assay: ELISA on immobilised MCP-2, absorbance 450 nm

Binder | EC50 (read off the curve)
B6 | ~0.3 µg/mL
B7 | ~0.3 µg/mL

target: T4, human MCP-3 (human, UniProt P80098 24-99); assay: ELISA
T4 construct: also called hMCP-3

Binder | binding result
B6 | no binding
B7 | no binding

target: T5, human MCP-1 (human, UniProt P13500 24-99); assay: ELISA on plate-coated human MCP-1, anti-human IgG-HRP; y axis unlabelled, OD 405 nm per paragraph 382
T5 construct: also called hMCP-1; huMCP-1
Description: Binding specificities of chimeric 11K2 and the four versions of humanized 11K2 (H1-L1, H1-L2, H2-L1, and H2-L2) were determined by ELISA, according to the protocol described in Example 1.
ELISA plates (Corning, Inc. Cat#3369) were coated with 50 ng MCP-1 per well overnight at 4° C. Plates were washed then blocked with PBS/5% milk for 1.5 hrs at 25° C. Another wash was followed by incubation with the 11K2 mAbs (or 3G9 isotype control) at the concentrations indicated for 1 hr at 25° C. After washing, the plates were incubated with secondary antibody (anti-human IgG-HRP, Jackson Immunoresearch Cat#109-036-088) for 1 hr at 25° C. Plates were then washed and developed using the ABTS Peroxidase Substrate Kit (Vector Laboratories Cat#SK-4500). OD (405 nm) values were plotted as a function of 11K2 mAb concentration.

Binder | EC50 (read off the curve)
B6 | ~0.02 µg/mL
B7 | ~0.02 µg/mL

target: T6, human MCP-4 (human, UniProt Q99616 24-98, limits assumed); assay: ELISA, purified mAb
T6 construct: also called hMCP-4
Description: (§2) ELISA specificity assays were performed using purified monoclonal antibodies to confirm the binding specificities of the supernatant MCP-specific monoclonal antibodies described above. Antibodies were purified by Protein A affinity column chromatography, according to standard methods known in the art.
(§3) ELISA was performed as previously described in Example 1. Briefly, MaxiSorp 384 well plates were coated with 15-20 μl antigen in PBS. Recombinant purified human antigens included: MCP-1, MCP-2, MCP-3, MCP-4, IL-8, eotaxin, murine MCP-1 (JE), murine MCP-3, murine MCP-5, and rat MCP-1. All antigens, including MCP-3, were immobilized. Plates were washed and purified monoclonal antibody (10 μg/ml) was added to each well and incubated for 1 hour at room temperature. Plates were washed and wells were incubated with 20 μl/well of a 1:25,000 dilution of goat anti-mouse IgG peroxidase conjugate (Jackson Catalog Number 515-036-003). Plates were incubated for 1 hour at room temperature, washed, and 20 μl/well of substrate (, tetramethylbenzidine, Jackson, Catalog Number 515-036-062) was added. Reaction was allowed to proceed and stopped by addition of 20 μl/well of 2M H₂SO₄. Antibodies 1A1 bound specifically to hMCP-1, hMCP-2, hMCP-3, and mMCP-1. Antibodies 11K2, 4N4, 5A13, 6D21, 615, and 7H1 bound specifically to hMCP-1, hMCP-2, hMCP-3, mMCP-1, mMCP-3, and mMCP-5.

Binder | binding result
B1 | no binding (tested: 10 µg/ml)
B2 | no binding (tested: 10 µg/ml)
B3 | no binding (tested: 10 µg/ml)
B4 | no binding (tested: 10 µg/ml)
B5 | no binding (tested: 10 µg/ml)

target: T7, human IL-8 (human, UniProt P10145 28-99, limits assumed); assay: ELISA, purified mAb
T7 construct: also called hIL8
Description: as §2, §3

Binder | binding result
B1 | no binding (tested: 10 µg/ml)
B2 | no binding (tested: 10 µg/ml)
B3 | no binding (tested: 10 µg/ml)
B4 | no binding (tested: 10 µg/ml)
B5 | no binding (tested: 10 µg/ml)

target: T8, human eotaxin (human, UniProt P51671 24-97); assay: ELISA, purified mAb
T8 construct: also called hEotaxin
Description: as §2, §3

Binder | binding result
B1 | no binding (tested: 10 µg/ml)
B2 | no binding (tested: 10 µg/ml)
B3 | no binding (tested: 10 µg/ml)
B4 | no binding (tested: 10 µg/ml)
B5 | no binding (tested: 10 µg/ml)

target: T5, human MCP-1; assay: KinExA, in solution, Fab
Description: (§4) 1 ml of MCP-1 at a concentration of 10 μg/ml in NaHCO₃ was added to an amount of beads equivalent to 1 ml of the original slurry. The beads were rocked overnight at 4° C. Beads were spun down and washed once with 1M Tris, pH 8.0, then resuspended in 1M Tris pH 8.0 with 1% BSA, 0.02% azide. The beads were rocked at room temperature for one hour then stored at 4° C. in this buffer for the duration of the experiments.
(§5) The KinExA 3000 measures protein-protein interaction in solution, and is ideally suited for measuring affinities of antibodies to antigens. In the typical experiment, antigen (MCP) is immobilized on a bead, antibody is flowed over a column of these beads at a given concentration, and the antibody that binds to the beads is detected using a fluorescent secondary. Antibody at a fixed concentration is then incubated with different concentrations of antigen in solution and the amount of free antibody is measured by flowing the mixture over the bead column quickly enough that no re-equilibration occurs between solution and solid phase. The amount of antibody remaining free is plotted against the concentration of antigen added and the data are fit to a quadratic equation to determine the affinity of the interaction in solution.
(§6) In these experiments, the only difference to the typical experiment described above is that instead of using intact antibody, a Fab fragment of 11K2 was used. Earlier KimExA experiments using the intact murine 11K2 mAb binding to MCP-1 and MCP-2 gave biphasic curves that the software could not interpret. This may be due to these proteins acting as dimers, so to eliminate the dimer/dimer interaction we generated Fab fragments. The binding of the 11K2 Fab fragments to MCP-1 and MCP-2 produced curves that the KinExA software could fit.

Binder | Kd
B8 | 0.0196 nM
B9 | 0.0364 nM
B10 | 0.0623 nM
B11 | 0.064 nM
B12 | 0.0775 nM

target: T3, human MCP-2; assay: KinExA, in solution, Fab
Description: as §4, §5, §6

Binder | Kd
B8 | 0.226 nM
B9 | 0.725 nM
B10 | 0.712 nM
B11 | 0.94 nM
B12 | 3.2 nM
